From publication PMC6650273 (Nature cell biology, 2019)

Molecular target: FLAG-Tor (Dictyostelium discoideum, UniProt Q86C65 1-2380)
Assay: pull-down

FLAG-Tor, sequence (Q86C65 whole entry): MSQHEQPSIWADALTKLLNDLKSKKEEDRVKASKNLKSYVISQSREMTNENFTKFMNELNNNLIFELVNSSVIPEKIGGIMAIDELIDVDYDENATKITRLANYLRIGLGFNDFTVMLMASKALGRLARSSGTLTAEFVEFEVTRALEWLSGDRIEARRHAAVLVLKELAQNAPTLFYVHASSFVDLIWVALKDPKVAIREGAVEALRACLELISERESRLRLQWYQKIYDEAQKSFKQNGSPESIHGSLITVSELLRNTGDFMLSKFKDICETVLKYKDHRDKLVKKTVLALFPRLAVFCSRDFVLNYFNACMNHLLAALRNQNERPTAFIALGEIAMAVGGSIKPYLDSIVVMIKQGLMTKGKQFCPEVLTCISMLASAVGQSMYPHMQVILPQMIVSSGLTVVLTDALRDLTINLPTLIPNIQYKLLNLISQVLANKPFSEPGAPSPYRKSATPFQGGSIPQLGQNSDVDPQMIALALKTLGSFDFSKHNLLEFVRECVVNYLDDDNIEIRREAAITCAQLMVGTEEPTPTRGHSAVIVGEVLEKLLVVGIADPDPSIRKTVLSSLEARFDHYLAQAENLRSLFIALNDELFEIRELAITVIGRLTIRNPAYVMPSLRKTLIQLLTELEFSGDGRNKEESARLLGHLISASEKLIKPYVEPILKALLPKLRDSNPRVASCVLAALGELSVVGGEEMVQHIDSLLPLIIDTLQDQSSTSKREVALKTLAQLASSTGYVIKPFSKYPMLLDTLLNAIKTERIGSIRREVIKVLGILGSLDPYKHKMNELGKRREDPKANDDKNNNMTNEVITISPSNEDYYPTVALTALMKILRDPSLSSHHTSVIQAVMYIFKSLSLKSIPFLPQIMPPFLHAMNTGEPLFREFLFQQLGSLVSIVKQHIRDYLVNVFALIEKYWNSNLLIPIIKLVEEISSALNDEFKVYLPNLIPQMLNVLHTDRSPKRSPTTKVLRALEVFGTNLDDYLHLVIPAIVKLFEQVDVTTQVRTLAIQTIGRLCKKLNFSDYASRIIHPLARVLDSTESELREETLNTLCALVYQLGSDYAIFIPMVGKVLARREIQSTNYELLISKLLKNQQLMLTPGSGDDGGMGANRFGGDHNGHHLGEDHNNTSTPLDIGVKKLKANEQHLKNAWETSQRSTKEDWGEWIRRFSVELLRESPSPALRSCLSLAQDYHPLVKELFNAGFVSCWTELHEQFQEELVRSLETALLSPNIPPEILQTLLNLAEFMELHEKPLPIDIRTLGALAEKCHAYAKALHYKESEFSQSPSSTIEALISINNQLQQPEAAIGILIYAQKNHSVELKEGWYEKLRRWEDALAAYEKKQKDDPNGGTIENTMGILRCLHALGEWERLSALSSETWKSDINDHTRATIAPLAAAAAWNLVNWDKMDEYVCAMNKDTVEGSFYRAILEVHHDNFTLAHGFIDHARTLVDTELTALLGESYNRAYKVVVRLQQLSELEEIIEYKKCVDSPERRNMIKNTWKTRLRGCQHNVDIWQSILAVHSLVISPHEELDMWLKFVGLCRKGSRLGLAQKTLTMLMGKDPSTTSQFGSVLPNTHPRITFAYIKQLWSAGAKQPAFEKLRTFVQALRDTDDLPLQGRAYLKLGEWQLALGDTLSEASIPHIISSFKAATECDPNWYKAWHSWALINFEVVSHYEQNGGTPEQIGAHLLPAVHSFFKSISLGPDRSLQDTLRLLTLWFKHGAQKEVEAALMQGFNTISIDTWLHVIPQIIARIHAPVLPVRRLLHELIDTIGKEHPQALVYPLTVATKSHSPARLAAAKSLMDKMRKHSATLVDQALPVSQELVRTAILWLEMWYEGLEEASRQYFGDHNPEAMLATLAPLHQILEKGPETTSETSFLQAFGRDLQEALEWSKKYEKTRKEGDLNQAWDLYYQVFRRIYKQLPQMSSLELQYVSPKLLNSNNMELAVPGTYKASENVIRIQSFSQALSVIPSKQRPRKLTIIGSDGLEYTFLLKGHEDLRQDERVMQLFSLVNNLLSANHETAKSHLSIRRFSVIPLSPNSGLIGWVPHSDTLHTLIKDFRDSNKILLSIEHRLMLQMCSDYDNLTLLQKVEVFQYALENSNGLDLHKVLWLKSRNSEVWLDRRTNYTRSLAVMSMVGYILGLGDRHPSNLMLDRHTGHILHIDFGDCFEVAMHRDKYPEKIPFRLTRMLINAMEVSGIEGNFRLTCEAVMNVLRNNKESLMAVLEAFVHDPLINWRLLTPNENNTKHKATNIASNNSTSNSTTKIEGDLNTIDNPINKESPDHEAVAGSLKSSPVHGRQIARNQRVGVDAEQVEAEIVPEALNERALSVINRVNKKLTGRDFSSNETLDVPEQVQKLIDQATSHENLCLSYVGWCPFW

B1: GFP-RacE_(T25N), GDP-bound, purified after chemoattractant stimulation (Ser192 phosphorylated) (natural protein)
chain: MSEDQGSGATRVKLVVVGDGAVGKNCLLICYAQNDFPVDYVPTVFENYTATRKRGNEDIKVHLWDTAGQEEYDRLRPLSYPGADVVLLCFSTISQSSYEAIRDKWAPEVNHYIPDVPSILVGTKIDLREQQHPDPNSGKFEPITADMGISMQKQIKAKKYLEVSAKTRQGLEEVFSAAIEIVLESRGMDKKSQDGSSSASGVPSGDKPTKGKAGKKKSGCIIL
modifications: phosphoserine at 192 (chemoattractant-induced)
binding result: binds
